Measured values reported in US20250002557A1 (SUZHOU LIGHT FERRY BIOMED, published 2025).

B1: VEGF-C (ligand, UniProt P49767 112-227, looked up)
chain: AHYNTEILKSIDNEWRKTQCMPREVCIDVGKEFGVATNTFFKPPCVSVYRCGGCCNSEGLQCMNTSTSYLSKTLFEITVPLSQGPKPVTISFANHTSCRCMSKLDVYRQVHSIIRR
notes: Bought reagent
B2: VEGF-D (ligand, UniProt O43915 89-205, looked up)
chain: FAATFYDIETLKVIDEEWQRTQCSPRETCVEVASELGKSTNTFFKPPCVNVFRCGGCCNEESLICMNTSTSYISKQLFEISVPLTSVPELVPVKVANHTGCKCLPTAPRHPYSIIRR
notes: Bought reagent
B3: VEGFR2-Fc (Met1-Glu764) (Fc fusion)
chain: ASVGLPSVSLDLPRLSIQKDILTIKANTTLQITCRGQRDLDWLWPNNQSGSEQRVEVTECSDGLFCKTLTIPKVIGNDTGAYKCFYRETDLASVIYVYVQDYRSPFIASVSDQHGVVYITENKNKTVVIPCLGSISNLNVSLCARYPEKRFVPDGNRISWDSKKGFTIPSYMISYAGMVFCEAKINDESYQSIMYIVVVVGYRIYDVVLSPSHGIELSVGEKLVLNCTARTELNVGIDFNWEYPSSKHQHKKLVNRDLKTQSGSEMKKFLSTLTIDGVTRSDQGLYTCAASSGLMTKKNSTFVRVHEKPFVAFGSGMESLVEATVGERVRIPAKYLGYPPPEIKWYKNGIPLESNHTIKAGHVLTIMEVSERDTGNYTVILTNPISKEKQSHVVSLVVYVPPQIGEKSLISPVDSYQYGTTQTLTCTVYAIPPPHHIHWYWQLEEECANEPSQAVSVTNPYPCEEWRSVEDFQGGNKIEVNKNQFALIEGKNKTVSTLVIQAANVSALYKCEAVNKVGRGERVISFHVTRGPEITLQPDMQPTEQESVSLWCTADRSTFENLTWYKLGPQPLPIHVGELPTPVCKNLDTLWKLNATMFSNSTNDILIMELKNASLQDQGDYVCLAQDRKTKKRHCVVRQLTVLERVAPTITGNLENQTTSIGESIEVSCTASGNPPPQIMWFKDNETLVEDSGIVLKDGNRNLTIRRVRKEDEGLYTCQACSVLGCAKVEAFFIIEGAQEKTNLE
notes: also called VEGFR2-Fc with the full extracellular domain; Full VEGFR2 extracellular domain; not shown: Fc part

Assays:
VEGFR2-Fc (Met1-Glu764) [1] = molecular target: B3; test: SPR Biacore T200 (Example 8)
VEGF-D [2] = molecular target: B2; test: blocking ELISA: His-VEGF-D premixed with sample, binding to coated VEGFR2-Fc read with anti-His-HRP
Experimental: (§1) During the blocking period, each recombinant receptor molecule was serially diluted from high to low concentrations, mixed evenly with 100 ng/well of VEGF-C or VEGF-D (both labeled with His-tag), allowing for incubation at room temperature for 30 minutes. […] The plates were washed with PBST, then anti-polyhistidine secondary antibody conjugated with horseradish peroxidase was added to allow for incubation and binding at room temperature for 1 hour. Then the plates were washed with PBST, TMB was added for color development, terminated with 5% hydrochloric acid solution, and finally, the OD values at 450 nm were read using a microplate reader.

VEGF-C = molecular target: B1; test: ELISA binding to VEGF-C, absorbance 450 nm
Experimental: VEGF-A165, VEGF-C and VEGF-D polypeptide molecules were purchased from ACROBiosystems Inc. VEGF molecules at 100-300 ng/well prepared in PBS were used for coating overnight at 4° C., the next day, the plates were washed with PBS, and 1% BSA solution was added to block for 2 hours at room temperature, after which the plates were washed again with PBS. […] Goat anti-human Fc secondary antibody conjugated with horseradish peroxidase diluted in PBT was added, followed by incubation at room temperature and 300 rpm for 1 hour, after that, the plates were washed three times with PBST solution. Then TMB was added for color development, terminated with 5% hydrochloric acid solution, and finally, the OD values at 450 nm were read using a microplate reader.

VEGF-D [3] = molecular target: B2; test: blocking ELISA: His-VEGF-D premixed with sample, binding to coated VEGFR2-Fc read with anti-His-HRP; remark: listed apart in the source
Experimental: as §1

VEGF-D [4] = molecular target: B2; test: blocking ELISA: His-VEGF-D premixed with sample, binding to coated VEGFR3-Fc read with anti-His-HRP
Experimental: (§2) During the blocking period, each recombinant receptor molecule was serially diluted from high to low concentrations, mixed evenly with 10 ng/well of VEGF-C or 500 ng/well of VEGF-D (both labeled with His-tag), allowing for incubation at room temperature for 30 minutes. […] The plates were washed with PBST, then TMB was added for color development, terminated with 5% hydrochloric acid solution, and finally, the OD values at 450 nm were read using a microplate reader.

VEGF-D [5] = molecular target: B2; test: as above; remark: listed apart in the source
Experimental: as §2

VEGFR2-Fc (Met1-Glu764) [6] = molecular target: B3; test: SPR, PDGF coupled to CM5 chip, VEGFR2-Fc in flow; row label printed PDGF-BR
Excerpt: Nevertheless, it was found in the preliminary detection experiments that PDGF family molecules (purchased from R&D Systems Inc.) were prone to produce non-specific binding in the chip, resulting in a pseudo-elevation in measured values, such that the detection could not be completed. Therefore, PDGF-AA, PDGF-AB, PDGF-BB and PDGF-CC molecules were separately loaded through a coupling reaction on a CM5 chip, followed by influx of the recombinant receptor molecules, thus effectively eliminating the impact of non-specific binding on affinity determination.

B1 showed a Kd (VEGFR2-Fc (Met1-Glu764) [1]) of 16.7 nM, a koff (VEGFR2-Fc (Met1-Glu764) [1]) of 0.000452 s⁻¹ and a kon (VEGFR2-Fc (Met1-Glu764) [1]) of 27100 M⁻¹ s⁻¹.

In the case of B2, the Kd (VEGFR2-Fc (Met1-Glu764) [1]) is reported as 21 nM, the koff (VEGFR2-Fc (Met1-Glu764) [1]) is reported as 0.000673 s⁻¹ and the kon (VEGFR2-Fc (Met1-Glu764) [1]) is reported as 32100 M⁻¹ s⁻¹.

For B3, the EC50 (VEGF-D [2]) was 31.5 nM, the EC50 (VEGF-C) was 269 nM and the EC50 (VEGF-D [3]) was 31.5 nM. The EC50 (VEGF-D [4]) was 33.4 nM and the EC50 (VEGF-D [5]) was 33.4 nM.

B4: PDGF-BB (ligand, UniProt P01127 82-190, looked up)
chain: SLGSLTIAEPAMIAECKTRTEVFEISRRLIDRTNANFLVWPPCVEVQRCSGCCNNRNVQCRPTQVQLRPVQVRKIEIVRKKPIFKKATVTLEDHLACKCETVAAARPVT
notes: Bought reagent
With B4 the Kd (VEGFR2-Fc (Met1-Glu764) [6]) was 14.1 nM.
